# Assay results reported in US20190300618A1 (Merck Sharp & Dohme, published 2019).
# Numbering of substitutions follows the chain as printed.
# T1: V49A
# T1 construct: also called hCD27 V49A
# T1 receptor: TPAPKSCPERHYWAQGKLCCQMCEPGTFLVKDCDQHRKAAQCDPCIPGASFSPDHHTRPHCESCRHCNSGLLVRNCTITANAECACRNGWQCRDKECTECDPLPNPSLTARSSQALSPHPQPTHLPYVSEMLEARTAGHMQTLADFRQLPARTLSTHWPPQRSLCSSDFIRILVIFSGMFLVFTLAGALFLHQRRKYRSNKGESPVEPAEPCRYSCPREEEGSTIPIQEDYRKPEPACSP
# T2: P8A
# T2 construct: also called hCD27 P8A
# T2 receptor: T1 receptor with P8A, A49V
# T3: P44A
# T3 construct: also called hCD27 P44A
# T3 receptor: T1 receptor with P44A, A49V
# T4: Q15A
# T4 construct: also called hCD27 Q15A
# T4 receptor: T1 receptor with Q15A, A49V
# T5: W13A
# T5 construct: also called hCD27 W13A
# T5 receptor: T1 receptor with W13A, A49V
# T6: K38A
# T6 construct: also called hCD27 K38A
# T6 receptor: T1 receptor with K38A, A49V
# T7: G16A
# T7 construct: also called hCD27 G16A
# T7 receptor: T1 receptor with G16A, A49V
# T8: W90A
# T8 construct: also called hCD27 W90A
# T8 receptor: T1 receptor with A49V, W90A
# T9: K31A
# T9 construct: also called hCD27 K31A
# T9 receptor: T1 receptor with K31A, A49V
# T10: G89A
# T10 construct: also called hCD27 G89A
# T10 receptor: T1 receptor with A49V, G89A
# B1: Antibody hCD27.131A (mouse parental 131A) (antibody, V domains shown)
# VH: QIQLVQSGPELKKPGETVKISCKASGYTFTNYGMNWVKQAPGKGLKWMGWINTNTGEPTYAEEFKGRFAFSLETSATTAYLQINNLKNEDTATYFCAREGDAMDYWGQGTSVTVSS
# VL: QIVLTQSPAIMSASPGEKVTMTCSASSSVSYMHWYQQKSGTSPKRWIYDTSKLASGVPARFSGSGSGTSYSLTISSMEAEDAATYYCQQWNSYPFTFGSGTKLEIK
# notes: mouse IgG1; also called mouse hCD27.131A
# Legend:
# Assay in all cases: flow cytometry, CHO-K1; sub-column 1 of 2
# [1] = biological target: T1, V49A
# [2] = biological target: T2, P8A
# [3] = biological target: T3, P44A
# [4] = biological target: T4, Q15A
# [5] = biological target: T5, W13A
# [6] = biological target: T6, K38A
# [7] = biological target: T7, G16A
# [8] = biological target: T8, W90A
# [9] = biological target: T9, K31A
# [10] = biological target: T10, G89A
Molecule,% of WT hCD27 binding (geo mean FITC) [1] [%],% of WT hCD27 binding (geo mean FITC) [2] [%],% of WT hCD27 binding (geo mean FITC) [3] [%],% of WT hCD27 binding (geo mean FITC) [4] [%],% of WT hCD27 binding (geo mean FITC) [5] [%],% of WT hCD27 binding (geo mean FITC) [6] [%],% of WT hCD27 binding (geo mean FITC) [7] [%],% of WT hCD27 binding (geo mean FITC) [8] [%],% of WT hCD27 binding (geo mean FITC) [9] [%],% of WT hCD27 binding (geo mean FITC) [10] [%]
1A4 (mouse IgG1) (antibody),144,84.5,146,32,89.1,104,90.8,123,194,100
9F4 (mouse IgG2a) (antibody),151,68.5,159,107,90.7,44.7,94.7,130,207,116
B1,147,44.9,158,99.6,86,48.2,94.8,126,203,113
